Experimental data published in patent US10849992B1, “Methods of screening for sortilin binding antagonists” (ALECTOR LLC, priority 2015, dated 2020).
Entries after “also recorded” stand apart in the source; their conditions may differ.

Columns and labels:
Sortilin [1] = biological target: T1, Sortilin (Homo sapiens, UniProt Q99523); assay: Cell-based PGRN-conditioned media assay (PGRN ELISA); design: expressed in transfected cells; host or cells: HEK293T; settings: sortilin-expressing HEK293T; 36-48 h; 1 or 10 μM pro-peptide, 6.7 or 67 nM antibody
T1 sequence (Q99523 78-831): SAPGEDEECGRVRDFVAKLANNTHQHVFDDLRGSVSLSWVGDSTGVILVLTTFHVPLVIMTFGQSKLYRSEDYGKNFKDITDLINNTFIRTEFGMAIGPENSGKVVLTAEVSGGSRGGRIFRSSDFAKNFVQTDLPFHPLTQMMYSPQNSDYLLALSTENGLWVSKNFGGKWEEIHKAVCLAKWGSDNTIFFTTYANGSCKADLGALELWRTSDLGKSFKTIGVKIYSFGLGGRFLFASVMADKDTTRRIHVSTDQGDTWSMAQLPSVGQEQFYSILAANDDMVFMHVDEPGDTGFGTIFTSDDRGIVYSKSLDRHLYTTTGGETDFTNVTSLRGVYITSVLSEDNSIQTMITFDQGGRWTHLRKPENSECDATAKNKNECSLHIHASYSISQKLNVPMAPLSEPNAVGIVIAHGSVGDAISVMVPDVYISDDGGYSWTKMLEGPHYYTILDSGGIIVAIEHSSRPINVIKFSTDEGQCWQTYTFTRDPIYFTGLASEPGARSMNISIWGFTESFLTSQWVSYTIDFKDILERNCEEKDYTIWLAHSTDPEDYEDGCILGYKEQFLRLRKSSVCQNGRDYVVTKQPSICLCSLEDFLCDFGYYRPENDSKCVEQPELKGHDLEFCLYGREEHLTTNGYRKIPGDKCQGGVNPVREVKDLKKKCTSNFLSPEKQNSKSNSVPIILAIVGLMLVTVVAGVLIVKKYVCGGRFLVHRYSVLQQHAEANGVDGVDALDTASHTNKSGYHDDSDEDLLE
Protocol: HEK293T cells were transiently transfected with constructs for expressing sortilin or LacZ (control) and incubated with PGRN-conditioned media collected from PGRN transfected HEK293T cells. PGRN levels remaining in the media were measured after 36-48 h using a PGRN ELISA Duoset kit (R&D Systems). Cells were incubated with 1 or 10 μM sortilin pro-peptide, 6.7 nM or 67 nM goat anti-sortilin antibody (SORT1 Ab), or 67 nM control IgG.
To prepare hPGRN-conditioned media, Hek293T cells were transiently transfected with full-length, untagged human PGRN (pCMV-Sport6, Thermo Scientific) using Fugene HD (Promega). Media containing PGRN was collected after 48 h. For the experiment, Hek293T cells were transiently transfected with human Sortilin (untagged in Topo3.3) or lacZ (control, Topo3.3) using Fugene HD. After 4-6 h, media containing a 1:5 dilution of PGRN conditioned media was added to the cells with or without blockers [1 or 10 uM Sortilin pro-peptide; 6.7 or 67 nM goat anti-Sortilin antibody (SORT1 Ab, R&D Systems, AF3154) or control IgG (R&D Systems, AB-108-C)]. Cell supernatant was collected after 48 h and analyzed using a PGRN Elisa Duoset kit (R&D Systems, DY2420).

Sortilin [2] = biological target: T1, Sortilin; assay: FACS assay: sortilin-mediated PGRN-DyLight650 binding and endocytosis; format: cell-based; design: Full-length Sortilin was used either untagged (Topo3.3) or with a C-terminal myc tag (pCMV6-AC-IRES-GFP); myc (only in the pCMV6-AC-IRES-GFP construct); expressed in transfected cells; host or cells: HEK293T; settings: FIG. 10B
Description: Sortilin-expressing cells were GFP-positive, and untransfected cells were GFP-negative (as labeled in FIG. 10A).
A second assay was developed using DyLight-650-conjugated PGRN protein. In this assay, binding and endocytosis of PGRN were observed using either fluorescence microscopy (FIG. 9A-9F) or FACS (FIGS. 10A and 10B).

Sortilin [3] = biological target: T1, Sortilin; assay: Cell-based microscopy assay: DyLight-650 PGRN binding and endocytosis; design: expressed in transfected cells; host or cells: HEK293T; settings: 10 μM blocker with 40 nM DyLight-650 PGRN, listed as sortilin pro-peptide
Protocol: HEK293T cells were transiently transfected with constructs for expressing sortilin or LacZ (control) and incubated with PGRN labeled using DyLight-650 (Life Technologies, Carlsbad, Calif.) for up to 60 minutes at 37° C. Binding and endocytosis of PGRN were observed by fluorescence microscopy. Recombinant human Progranulin (Adipogen) was labeled with DyLight 650 (Life Technologies, Carlsbad, Calif.). Cells were transiently transfected with human Sortilin or lacZ (control) and GFP using Fugene and harvested after 24 h. GFP was either expressed by a second vector (Topo3.3, Invitrogen) or located on the same vector, separated by an IRES (pCMV6-AC-IRES-GFP, Origene). Full-length Sortilin was used either untagged (Topo3.3) or with a C-terminal myc tag (pCMV6-AC-IRES-GFP). Cells were then plated on microscopy chambered glass slides coated with poly-1-lysine. After 4-6 h, cells were washed in OptiMem serum-free media, and 40 nM Progranulin-650 was added with or without 10 uM Sortilin pro-peptide as a blocker. Cells were incubated at 37° C. for up to 60′. Subsequently, cells were fixed in 4% paraformaldehyde, washed in PBS and imaged on a Nikon fluorescent microscope.

## sortilin pro-domain peptide: peptide of the Sortilin1 pro-domain used as a blocker of PGRN binding (QDRLDAPPPPAAPLPRWSGPIGVSWGLRAAAAGGAFPRGGRWRR)
Sortilin [1]
  PGRN levels in the media (rescue of sortilin-mediated reduction): partially rescued
Sortilin [2]
  blocking of PGRN binding to transfected cells: blocked
Sortilin [3]
  PGRN binding and endocytosis (DyLight-650 fluorescence): not observed; also recorded: little signal
